Drawing on US20220332804A1 (CSL INNOVATION, published 2022), this text covers Kd for 1 molecule.

Positions count from the first letter of the chain named.

Assay in all cases: SPR, antibody captured, C2 as analyte;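 further: biacore at 37 °C, anti-C2 mAbs held by immobilised goat anti-human IgG, C2 alanine or serine mutants injected, double-referenced sensorgrams fitted to a 1:1 kinetic or steady-state model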
(In general: In SPR one partner is held on a chip, and binding of the other changes the refractive index at the surface.)

The target in one test is T1, human C2 F689A (human, UniProt P06681 21-752).
T1 sequence: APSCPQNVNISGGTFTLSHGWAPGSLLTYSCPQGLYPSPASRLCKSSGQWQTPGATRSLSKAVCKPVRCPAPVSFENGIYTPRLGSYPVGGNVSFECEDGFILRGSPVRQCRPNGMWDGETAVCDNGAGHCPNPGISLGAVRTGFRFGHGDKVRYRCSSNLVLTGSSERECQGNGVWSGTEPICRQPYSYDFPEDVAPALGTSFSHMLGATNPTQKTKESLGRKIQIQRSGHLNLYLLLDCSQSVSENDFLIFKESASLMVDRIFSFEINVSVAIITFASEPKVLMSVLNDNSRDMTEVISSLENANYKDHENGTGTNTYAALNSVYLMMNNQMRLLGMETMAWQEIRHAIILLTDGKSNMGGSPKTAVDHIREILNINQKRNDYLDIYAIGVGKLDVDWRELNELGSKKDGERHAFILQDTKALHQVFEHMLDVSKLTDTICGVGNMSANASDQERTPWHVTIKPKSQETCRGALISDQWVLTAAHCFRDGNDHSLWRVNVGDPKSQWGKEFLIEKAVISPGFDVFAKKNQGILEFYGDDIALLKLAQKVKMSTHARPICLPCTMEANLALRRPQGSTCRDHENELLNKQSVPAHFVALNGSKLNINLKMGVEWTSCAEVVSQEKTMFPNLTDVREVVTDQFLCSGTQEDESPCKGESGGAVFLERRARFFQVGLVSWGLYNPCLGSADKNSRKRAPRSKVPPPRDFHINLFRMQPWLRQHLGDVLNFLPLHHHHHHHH

The target in the next test is T2, human C2 I438A (human, UniProt P06681 21-752).
T2 sequence: T1 sequence with I418A, A669F

Another test has as its target T3, human C2 E267A (human, UniProt P06681 21-752).
T3 sequence: T1 sequence with E247A, A669F

The next test concerns the target T4, human C2 H451A (human, UniProt P06681 21-752).
T4 sequence: T1 sequence with H431A, A669F

B1: RF16-242 (antibody, human IgG4 S228P, lambda, V domains shown)
VH: EVQLLQSGAEVKKPGESLKISCKGSGYSFTSYWIGWVRQMPGKGLEWMGIIYPGDSDTRYSPSFQGQVTISADKSISTAYLQWSSLKASDTAMYYCARRGHYGDYFDYWGQGTLVTVSS
VL: SYELTQPPSVSVSPGQTARITCSGDALPKKYAYWYHQKSGQAPVLVIYEDRRRPSEIPERFSGSSSGTMATLTITGAQVEDEGVYFCYSRDRAGNQRVFGGGTQLTVLG
notes: pH-dependent anti-C2 antibody from a phage display library
For orientation: Kd means a measure of binding affinity in units of concentration. A low value points to higher affinity. On to B1, for which the Kd came to 6.3 nM in the test with human C2 F689A, 8.7 nM in the test with human C2 I438A, 12.1 nM with human C2 E267A and 21.3 nM in the test with human C2 H451A.
